Here are results for five molecules from PMC3750173, “Ferredoxin Competes with Bacterial Frataxin in Binding to the Desulfurase IscS*^([image sbox.jpg])” (The Journal of Biological Chemistry, 2013).

Assay [1] addresses holo-Fdx (cluster-loaded E. coli ferredoxin) (E. coli) (UniProt P0A9R4). Description: SAXS; solutions of 2.5-5.0 mg/ml at 10 °C; IscS alone and holo-Fdx·IscS complex.
Assay [2] shares this target. Description: BLI; biotinylated holo-Fdx on streptavidin biosensors, IscS 0-60 μM; 20 mM HEPES pH 7.5, 150 mM NaCl, 2 mM TCEP, 0.5 mg/ml BSA, 25 °C; Kd from the amplitude at equilibrium. Background: BLI is a label-free optical method that tracks binding on a fibre tip over time.
Assay [3] has as its target T1, IscS (E. coli desulfurase), wild type (E. coli, UniProt P0A6B7 1-404).
T1 construct: cysteine desulfurase IscS, E. coli; construct pET-11 IscS (EMBL-Hamburg); Dimer by SAXS; also called desulfurase IscS
Description: NMR titration; competition: holo-Fdx·IscS sample (with IscU added before) titrated with CyaY up to 3 molar excess over holo-Fdx; 20 mM Tris, 150 mM NaCl, 20 mM TCEP, pH 8, 298 K. The following applies: both partners purified.

The target of a further assay is T2, IscS_R112E/R116E (E. coli, UniProt P0A6B7 1-404, R112E | R116E).
T2 construct: cysteine desulfurase IscS, E. coli; site-directed mutant of pET-11 IscS; designed after the first round of docking
The experiment in a line: NMR titration; 15N-SOFAST HMQC of [15N]- or [15N/2H]Fdx or Fdx mutants titrated with unlabelled IscS or IscS mutants; 20 mM Tris, 150 mM NaCl, 20 mM TCEP, pH 8, 298 K. The following applies: both partners purified.

A further assay concerns the target T3, IscS_D346K/E347K (E. coli, UniProt P0A6B7 1-404, D346K | E347K).
T3 construct: cysteine desulfurase IscS, E. coli; site-directed mutant of pET-11 IscS
The assay is described as above. The following applies: both partners purified.

The next assay has as its target T4, IscS_I314E/M315E (E. coli, UniProt P0A6B7 1-404, I314E | M315E).
T4 construct: cysteine desulfurase IscS, E. coli; site-directed mutant of pET-11 IscS
Described as above. The following applies: both partners purified.

Assay [4] addresses T1, IscS (E. coli desulfurase), wild type. The assay is described as above. The conditions noted are these: both partners purified.

Substitutions are numbered along the chain they refer to. In names and notes the source's numbering stands.

As a reminder, the Kd is the free concentration of one partner at which half of the binding sites on the other are occupied at equilibrium, for simple one-to-one binding. In assay [1], “IscS (E. coli desulfurase), wild type (from UniProt P0A6B7 1-404) (enzyme)” registered a percent of free components of 10%, a percent of the complex (OLIGOMER fit) of 80% and a stoichiometry N (IscS:Fdx (2:2)) of 1. For the same molecule, the Kd in assay [2] was determined as 1500 nM.

B1: CyaY (bacterial ortholog of frataxin) (natural protein, E. coli, UniProt P27838 1-106, looked up)
chain: MNDSEFHRLADQLWLTIEERLDDWDGDSDIDCEINGGVLTITFENGSKIIINRQEPLHQVWLATKQGGYHFDLKGDEWICDRSGETFWDLLEQAATQQAGETVSFR
notes: CyaY, the bacterial ortholog of frataxin, E. coli; also called bacterial frataxin
Consider B1, for which the binding result in assay [3] was “binds”.

B2: holo-Fdx (cluster-loaded E. coli ferredoxin) (natural protein)
chain: MPKIVILPHQDLCPDGAVLEANSGETILDAALRNGIEIEHACEKSCACTTCHCIVREGFDSLPESSEQEDDMLDKAWGLEPESRLSCQARVTDEDLVVEIPRYTINHAREH
modifications: [2Fe-2S] cluster bound (holo); biotinylated for BLI (site not stated); 15N or 15N/2H labelled for NMR
notes: ferredoxin (Fdx) of the isc operon, E. coli; fdx amplified from E. coli genomic DNA into a modified pET-24 vector; The same construct was used 15N- or 15N/2H-labelled in NMR and biotinylated on streptavidin biosensors in BLI; residues left after TEV cleavage and the NcoI site are not described; also called [15N]holo-Fdx; [15N/2H]holo-Fdx; source: E. coli, purified (nickel-nitrilotriacetic …)
Take B2: the binding result in the assay with IscS_R112E/R116E, with IscS_D346K/E347K and with IscS_I314E/M315E was “binds” throughout.

B3: holo-Fdx_D11K (natural protein, E. coli)
chain: B2 chain with D11K
modifications: [2Fe-2S] cluster bound (holo); 15N labelled
notes: ferredoxin (Fdx) of the isc operon, E. coli; mutant of the pET-24 construct; source: E. coli, purified (nickel-nitrilotriacetic acid-agarose, TEV cleavage, Superdex G75, MonoQ); not shown: GST, N-terminal, cleaved; His tag, N-terminal, cleaved
For the molecule B3, in assay [4], the binding result was “binds”.

B4: holo-Fdx_E57K/D60K (natural protein, E. coli)
chain: B2 chain with E57K, D60K
modifications: [2Fe-2S] cluster bound (holo); 15N labelled
notes: as for B3
Regarding B4, the binding result in assay [4] is listed as “binds”.
